US6001657

Key:
[1] = test system: anti-quadruplex monoclonal autoantibody me^v-alphaQ1 (Mus musculus); assay: filter; conditions: RIFB, Scatchard, TEP buffer 150 mM KCl, 37 C
[2] = test system: anti-quadruplex monoclonal autoantibody me^v-alphaQ1 (Mus musculus); assay: FP filter; conditions: nitrocellulose filter binding (RIFB), Scatchard; TEP buffer 50 mM Tris pH 7.4, 5 mM EDTA, 150 mM KCl, 37 C; Ka 2.7e6 M^-1 in table (text prints 2.7e5)

**Q.** With “CGCGCGCGCG (double strand) [d(CG5)2 duplex]” as the substance, how does the Kd ([1]; Ka 3.8e5 M^-1, negative control in screening) read?
**A.** The Kd was 2600 nM.

**Q.** For poly r(G), which Kd ([1]; Ka 4.0e5 M^-1) is on record?
**A.** Its Kd is 2500 nM.

**Q.** With TGGGG [d(TG4)4 quadruplex] as the substance, how does the Kd ([1]; Ka 2.5e6 M^-1) read?
**A.** Its Kd is 400 nM.

**Q.** Which Kd ([1]; Ka 6.8e5 M^-1) does the source give for “GGGGTTTGGGGTTTCCCC [d(G4T3G4T3C4) triplex]” here?
**A.** Its Kd is 1500 nM.

**Q.** “CCCCTTTGGGGTTTGGGG [d(C4T3G4T3G4) triplex]” was tested. Which Kd ([1]; Ka 5.0e5 M^-1) did it give?
**A.** Its Kd is 2000 nM.

**Q.** “TTGGGGTTGGGGTTGGGGTTGGGG [(TET4)4 quadruplex]” was tested. Which Kd [2] did it give?
**A.** Its Kd is 370 nM.

**Q.** With CGCGGGGGCG [d(CGC G4 GCG)4 quadruplex] as the substance, how does the Kd ([1]; Ka 1.6e6 M^-1) read?
**A.** Its Kd is 630 nM.
